US7118879
Where two headings read alike, the source gives them in different places.

Assays:
[1] = biological target: human neutrophil elastase (immobilized on Reacti-Gel agarose beads, or free) (human) (UniProt P08246); assay: HNE beads, pH 3.5 eluate
[2] = biological target: human neutrophil elastase (immobilized on Reacti-Gel agarose beads, or free) (human) (UniProt P08246); assay: HNE beads, pH 7.0 eluate
[3] = biological target: human neutrophil elastase (immobilized on Reacti-Gel agarose beads, or free) (human) (UniProt P08246); assay: HNE beads, pH 4.5 eluate
[4] = biological target: human neutrophil elastase (immobilized on Reacti-Gel agarose beads, or free) (human) (UniProt P08246); assay: HNE beads, all pH eluates
[5] = biological target: human neutrophil elastase (immobilized on Reacti-Gel agarose beads, or free) (human) (UniProt P08246); assay: HNE beads, pH 2.0 eluate
[6] = biological target: human neutrophil elastase (immobilized on Reacti-Gel agarose beads, or free) (human) (UniProt P08246); assay: pH elution of phage from HNE beads
[7] = biological target: human neutrophil elastase (immobilized on Reacti-Gel agarose beads, or free) (human) (UniProt P08246); assay: HNE beads, wash
[8] = biological target: human neutrophil elastase (immobilized on Reacti-Gel agarose beads, or free) (human) (UniProt P08246); assay: HNE beads, all pH eluates; remark: listed apart in the source
[9] = biological target: human neutrophil elastase (immobilized on Reacti-Gel agarose beads, or free) (human) (UniProt P08246); assay: HNE beads, pH 6.0 eluate
[10] = biological target: human neutrophil elastase (immobilized on Reacti-Gel agarose beads, or free) (human) (UniProt P08246); assay: HNE beads, pH 2.0 eluate; remark: listed apart in the source
[11] = biological target: human neutrophil elastase (immobilized on Reacti-Gel agarose beads, or free) (human) (UniProt P08246); assay: HNE beads, pH 5.5 eluate
[12] = biological target: human neutrophil elastase (immobilized on Reacti-Gel agarose beads, or free) (human) (UniProt P08246); assay: HNE beads, pH 6.0 eluate; remark: listed apart in the source
[13] = biological target: human neutrophil elastase (immobilized on Reacti-Gel agarose beads, or free) (human) (UniProt P08246); assay: HNE beads, pH 3.0 eluate
[14] = biological target: human neutrophil elastase (immobilized on Reacti-Gel agarose beads, or free) (human) (UniProt P08246); assay: HNE beads, all pH eluates; remark: listed apart in the source
[15] = biological target: human neutrophil elastase (immobilized on Reacti-Gel agarose beads, or free) (human) (UniProt P08246); assay: HNE beads, final TBS-TWEEN wash
[16] = biological target: human neutrophil elastase (immobilized on Reacti-Gel agarose beads, or free) (human) (UniProt P08246); assay: HNE beads, pH 2.0 eluate; remark: listed apart in the source
[17] = biological target: human neutrophil elastase (immobilized on Reacti-Gel agarose beads, or free) (human) (UniProt P08246); assay: HNE beads, pH 4.5 eluate; remark: listed apart in the source
[18] = biological target: human neutrophil elastase (immobilized on Reacti-Gel agarose beads, or free) (human) (UniProt P08246); assay: HNE beads, pH 7.0 eluate; remark: listed apart in the source
[19] = biological target: human neutrophil elastase (immobilized on Reacti-Gel agarose beads, or free) (human) (UniProt P08246); assay: HNE beads, pH 7.0 eluate; remark: listed apart in the source
[20] = biological target: human neutrophil elastase (immobilized on Reacti-Gel agarose beads, or free) (human) (UniProt P08246); assay: HNE beads, pH 2.5 eluate
[21] = biological target: human neutrophil elastase (immobilized on Reacti-Gel agarose beads, or free) (human) (UniProt P08246); assay: HNE beads, pH 3.5 eluate; remark: listed apart in the source
[22] = biological target: human neutrophil elastase (immobilized on Reacti-Gel agarose beads, or free) (human) (UniProt P08246); assay: HNE beads, pH 5.5 eluate; remark: listed apart in the source
[23] = biological target: human neutrophil elastase (immobilized on Reacti-Gel agarose beads, or free) (human) (UniProt P08246); assay: HNE beads, pH 5.0 eluate
[24] = biological target: human neutrophil elastase (immobilized on Reacti-Gel agarose beads, or free) (human) (UniProt P08246); assay: pH elution of clonal phage from HNE beads (FIG. 9)
[25] = biological target: human neutrophil elastase (immobilized on Reacti-Gel agarose beads, or free) (human) (UniProt P08246); assay: HNE beads, pH 4.0 eluate
[26] = biological target: human neutrophil elastase (immobilized on Reacti-Gel agarose beads, or free) (human) (UniProt P08246); assay: HNE beads, pH 4.0 eluate; remark: listed apart in the source
[27] = biological target: human neutrophil elastase (immobilized on Reacti-Gel agarose beads, or free) (human) (UniProt P08246); assay: HNE beads, pH 3.5 eluate; remark: listed apart in the source
[28] = biological target: human neutrophil elastase (immobilized on Reacti-Gel agarose beads, or free) (human) (UniProt P08246); assay: HNE beads, pH 3.0 eluate; remark: listed apart in the source
[29] = biological target: human neutrophil elastase (immobilized on Reacti-Gel agarose beads, or free) (human) (UniProt P08246); assay: HNE beads, pH 5.0 eluate; remark: listed apart in the source
[30] = biological target: human neutrophil elastase (immobilized on Reacti-Gel agarose beads, or free) (human) (UniProt P08246); assay: HNE beads, pH 2.5 eluate; remark: listed apart in the source
[31] = biological target: trypsin (active, immobilized on beads, or in solution) (UniProt P00760); assay: trypsin beads
trypsin (active, immobilized on beads, or in solution), sequence (P00760 24-246): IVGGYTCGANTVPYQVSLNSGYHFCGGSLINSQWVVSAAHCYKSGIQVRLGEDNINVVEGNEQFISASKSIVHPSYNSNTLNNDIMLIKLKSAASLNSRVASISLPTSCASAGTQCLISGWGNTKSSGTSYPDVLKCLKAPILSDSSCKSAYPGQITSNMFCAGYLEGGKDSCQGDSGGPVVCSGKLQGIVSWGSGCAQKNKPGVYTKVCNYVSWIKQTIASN

[32] = biological target: anhydro-trypsin (agarose-immobilized) (UniProt P00760); assay: anhydrotrypsin beads, experiment 1
[33] = biological target: anhydro-trypsin (agarose-immobilized) (UniProt P00760); assay: acid-eluted from anhydrotrypsin beads, experiment 2
[34] = biological target: protein A (agarose beads) (UniProt P38507); assay: titer after protein A beads alone
[35] = biological target: trypsin (active, immobilized on beads, or in solution) (UniProt P00760); assay: acid-eluted from trypsin beads
[36] = biological target: human neutrophil elastase (immobilized on Reacti-Gel agarose beads, or free) (human) (UniProt P08246); assay: acid-eluted from HNE beads
[37] = biological target: anhydro-trypsin (agarose-immobilized) (UniProt P00760); assay: anhydrotrypsin beads, experiment 2
[38] = biological target: anhydro-trypsin (agarose-immobilized) (UniProt P00760); assay: eluted from anhydrotrypsin beads
[39] = biological target: human neutrophil elastase (immobilized on Reacti-Gel agarose beads, or free) (human) (UniProt P08246); assay: HNE beads
[40] = biological target: anhydro-trypsin (agarose-immobilized) (UniProt P00760); assay: anhydrotrypsin beads
[41] = biological target: trypsin (active, immobilized on beads, or in solution) (UniProt P00760); assay: eluted from trypsin beads
[42] = biological target: anhydro-trypsin (agarose-immobilized) (UniProt P00760); assay: titer after anhydrotrypsin beads
[43] = biological target: anhydro-trypsin (agarose-immobilized) (UniProt P00760); assay: acid-eluted from anhydrotrypsin beads, experiment 1

human neutrophil elastase (immobilized on Reacti-Gel agarose beads, or free) (human), sequence (P08246 30-247 limits assumed): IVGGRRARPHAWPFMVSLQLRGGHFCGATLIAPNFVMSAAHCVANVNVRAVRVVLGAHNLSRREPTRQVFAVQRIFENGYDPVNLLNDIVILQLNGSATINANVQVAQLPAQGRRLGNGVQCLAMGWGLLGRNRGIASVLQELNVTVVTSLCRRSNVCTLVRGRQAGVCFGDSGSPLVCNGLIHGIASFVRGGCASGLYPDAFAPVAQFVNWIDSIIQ

Substance: EpiNE7 phage (designed binder)
- fraction of input [1]: 0.003
- fraction of input [2]: 0.00029
- total pfu in sample [2]: 520000 pfu
- fraction of input [3]: 0.00061
- total pfu in sample [3]: 1.1e+06 pfu
- fraction of input, SUM of pH elution fractions [4]: 0.003
- total pfu, SUM of pH elution fractions [4]: 6.4e+06 pfu
- fraction of input [5]: 0.001
- pH of elution peak [6]: 3.5 pH
- fraction of input [7]: 6e-05
- fraction of input, SUM of pH elution fractions [8]: 0.0041
- total pfu, SUM of pH elution fractions [8]: 7.6e+06 pfu
- fraction of input [9]: 0.00036
- total pfu in sample [9]: 640000 pfu
- fraction of input [10]: 0.00016
- total pfu in sample [10]: 290000 pfu
- fraction of input [11]: 0.00028
- total pfu in sample [11]: 940000 pfu
- fraction of input [12]: 0.00041
- total pfu in sample [12]: 1.4e+06 pfu
- fraction of input [13]: 0.00021
- total pfu in sample [13]: 380000 pfu
- fraction of input, SUM of pH elution fractions [14]: 0.0043
- fraction of input [15]: 0.00012
- total pfu in sample [15]: 380000 pfu
- fraction of input [16]: 9.1e-05
- total pfu in sample [16]: 300000 pfu
- fraction of input [17]: 0.00035
- total pfu in sample [17]: 1.2e+06 pfu
- fraction of input [18]: 0.00018
- total pfu in sample [18]: 620000 pfu
- fraction of input [19]: 0.0003
- fraction of input [20]: 0.00016
- total pfu in sample [20]: 280000 pfu
- fraction of input [21]: 0.00029
- total pfu in sample [21]: 950000 pfu
- fraction of input [22]: 0.00043
- total pfu in sample [22]: 780000 pfu
- fraction of input [23]: 0.00029
- total pfu in sample [23]: 950000 pfu
- pH of elution peak [24]: 3.5 pH
- fraction of input [25]: 0.00048
- total pfu in sample [25]: 1.6e+06 pfu
- fraction of input [26]: 0.00094
- total pfu in sample [26]: 1.7e+06 pfu
- fraction of input [27]: 0.00061
- total pfu in sample [27]: 1.1e+06 pfu
- fraction of input [28]: 0.0002
- total pfu in sample [28]: 660000 pfu
- fraction of input [29]: 0.00047
- total pfu in sample [29]: 840000 pfu
- fraction of input [30]: 4.8e-05
- total pfu in sample [30]: 160000 pfu

Substance: M13mp18 phage (wild type, non-display phage)
- relative binding (to M13MP18) [31]: 1 fold
- binding relative to M13MP18 [32]: 1 fold
- eluted phage, % of input [33]: 0.3%
- % of input pfu [34]: 72%
- eluted phage, % of input [35]: 0.0005%
- eluted phage, % of input [36]: 0.0003%
- binding relative to M13mp18 [37]: 1 fold
- eluted phage, % of input [38]: 0.1%
- relative binding (to M13MP18) [39]: 1 fold
- relative binding (to M13MP18) [40]: 1 fold
- eluted phage, % of input [41]: 0.00023%
- % of input pfu post incubation [42]: 121%
- eluted phage, % of input [43]: 0.2%
